Laboratory results from US20210071139A1.

The substances below were run against TOX (UniProt Q66JW3) (assay: anti-TOX IP from EL4 cells, mass spectrometry, MiST analysis).
Sequence of TOX (Q66JW3 whole entry): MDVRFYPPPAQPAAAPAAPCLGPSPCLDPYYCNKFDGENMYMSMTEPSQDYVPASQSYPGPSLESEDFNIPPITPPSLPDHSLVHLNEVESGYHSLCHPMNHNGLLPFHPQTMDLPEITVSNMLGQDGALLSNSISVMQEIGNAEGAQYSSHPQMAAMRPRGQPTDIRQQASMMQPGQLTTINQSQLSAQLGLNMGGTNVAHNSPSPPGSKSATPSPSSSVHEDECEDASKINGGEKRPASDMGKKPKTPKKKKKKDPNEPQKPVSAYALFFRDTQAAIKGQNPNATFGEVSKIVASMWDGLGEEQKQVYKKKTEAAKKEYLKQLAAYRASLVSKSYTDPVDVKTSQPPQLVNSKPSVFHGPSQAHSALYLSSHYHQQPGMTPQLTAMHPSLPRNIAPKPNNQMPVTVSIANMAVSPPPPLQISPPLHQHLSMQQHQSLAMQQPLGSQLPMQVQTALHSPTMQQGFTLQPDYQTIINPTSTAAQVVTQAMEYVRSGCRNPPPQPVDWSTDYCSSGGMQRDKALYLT

Sequence of Emg1 (O35130 whole entry): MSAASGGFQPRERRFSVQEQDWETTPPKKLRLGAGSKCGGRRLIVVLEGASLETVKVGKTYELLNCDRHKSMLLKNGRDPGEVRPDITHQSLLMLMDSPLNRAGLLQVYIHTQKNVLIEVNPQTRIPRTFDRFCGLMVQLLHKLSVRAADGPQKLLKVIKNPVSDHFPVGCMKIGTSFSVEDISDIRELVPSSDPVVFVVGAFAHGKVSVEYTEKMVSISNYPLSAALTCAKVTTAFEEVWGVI

Substance	Abundance	MiST Score	Reproducibility	Specificity
Aars (from UniProt Q8BGQ7 1-968) (enzyme)	4.49e-06	0.827	0.459	1
Add3 (from UniProt Q9QYB5 2-706)	3.22e-06	0.807	0.394	1
Ahnak	6.22e-06	0.812	0.497	0.961
Ap3d1 (from UniProt O54774 2-1199)	1.02e-06	0.817	0.427	1
Baz1a (from UniProt O88379 1-1555)	4.09e-07	0.825	0.454	1
Ckap5 (from UniProt A2AGT5 1-2032)	1.02e-06	0.81	0.924	0.765
Cpsf3 (from UniProt Q9QXK7 2-684) (enzyme)	1.17e-05	0.825	0.871	0.811
Ddx18 (from UniProt Q8K363 1-660) (enzyme)	4.72e-05	0.822	0.986	0.756
Dnaja2 (from UniProt Q9QYJ0 1-409)	0.000332	0.8	0.946	0.742
Dnmt1 (from UniProt P13864 1-1620) (enzyme)	4.05e-06	0.814	0.929	0.77
Dst (from UniProt Q91ZU6 1-7393)	1.97e-08	0.804	0.385	1
Ep400 (from UniProt Q8CHI8 1-3072)	2.31e-06	0.825	0.451	1
Ipo4 (from UniProt Q8VI75 1-1082)	1.65e-06	0.826	0.94	0.782
Isy1 (from UniProt Q69ZQ2 1-285)	3.22e-05	0.811	0.856	0.797
LRWD1 (from UniProt Q8BUI3 1-648)	9.87e-06	0.803	0.965	0.737
Lmnb1 (from UniProt P14733 2-585)	1.67e-05	0.822	0.964	0.766
Lrrfip1 (from UniProt Q3UZ39 2-729)	8.42e-06	0.817	0.996	0.743
Nmt1 (from UniProt O70310 1-496) (enzyme)	6.96e-06	0.821	0.948	0.772
Nup98 (from UniProt Q6PFD9 1-880)	5.87e-07	0.803	0.381	1
Otud4 (from UniProt B2RRE7 1-1107) (enzyme)	9.24e-07	0.818	0.993	0.747
Parp2 (from UniProt O88554 1-559) (enzyme)	2.87e-06	0.827	0.46	1
Pds5a (from UniProt Q6A026 1-1332)	1.76e-06	0.824	0.865	0.813

Substance	Abundance	MiST Score	Reproducibility	Specificity
Pds5b (from UniProt Q4VA53 1-1446)	2.47e-06	0.807	0.845	0.797
Ptpn11 (from UniProt P35235 2-593) (enzyme)	4.22e-05	0.808	0.396	1
Rars (from UniProt Q9D0I9 1-660) (enzyme)	4.81e-06	0.797	0.98	0.721
Rftn1 (from UniProt Q6A0D4 2-554)	4.96e-06	0.8	0.37	1
Rpa2 (from UniProt Q62193 1-270)	0.000292	0.814	0.977	0.747
Rpl14; Rpl14-ps1 (from UniProt Q9CR57 1-217)	0.00405	0.797	0.997	0.714
Rps23 (from UniProt P62267 1-143)	0.00479	0.807	0.997	0.728
Sfxn1 (from UniProt Q99JR1 2-322)	3.71e-05	0.827	0.954	0.777
Srsf5 (from UniProt O35326 1-269)	0.000505	0.807	0.996	0.729
Ssb (from UniProt P32067 1-415)	3.74e-05	0.809	0.807	0.817
Stau1 (from UniProt Q9Z108 1-487)	1.96e-05	0.825	0.951	0.776
Supt16; Supt16h (from UniProt Q920B9 2-1047)	4.95e-06	0.818	0.8	0.833
Tbl1x (from UniProt Q9QXE7 2-527)	5.34e-06	0.825	0.453	1
Tdrd3 (from UniProt Q91W18 1-743)	8.62e-06	0.815	0.627	0.907
Tfip11 (from UniProt Q9ERA6 1-838)	5.43e-06	0.826	0.972	0.767
Tpx2 (from UniProt A2APB8 1-745)	1.91e-05	0.805	0.992	0.727
Tra2b (from UniProt P62996 2-288)	3.65e-05	0.803	0.381	1
Wrnip1 (from UniProt Q91XU0 1-660)	3.59e-06	0.812	0.41	1
Yars (from UniProt Q91WQ3 1-528) (enzyme)	2.51e-06	0.802	0.379	1
Ythdf1 (from UniProt P59326 2-559)	3.5e-05	0.811	0.833	0.809
Zc3h11a (from UniProt Q6NZF1 1-792)	1.22e-05	0.801	0.957	0.737

The substances below were run against TOX (UniProt Q66JW3) (assay: anti-TOX IP from EL4 nuclear extract, LC-MS/MS, MiST analysis).

Substance	Abundance	MiST Score	Reproducibility	Specificity
Acin1 (from UniProt Q9JIX8 1-1338)	2.27e-05	0.77	0.612	0.848
Ap3b1 (from UniProt Q9Z1T1 1-1105)	4.13e-06	0.778	0.696	0.821
BC005685	0.000234	0.779	0.959	0.705
Bag6 (from UniProt Q9Z1R2 1-1154)	1.4e-06	0.782	0.765	0.797
Brd1	3.1e-06	0.785	0.321	1
Cd3eap (from UniProt Q76KJ5 1-399)	0.000224	0.773	0.993	0.68
Csnk2a2 (from UniProt O54833 1-350) (enzyme)	2.87e-05	0.778	0.913	0.725
Cycs (from UniProt P62897 2-105)	8.14e-05	0.793	0.957	0.726
Eif2a (from UniProt Q8BJW6 1-581)	8.58e-05	0.794	0.992	0.712
Eif3h (from UniProt Q91WK2 1-352)	0.000105	0.784	0.956	0.714
Elmo1 (from UniProt Q8BPU7 1-727)	5.93e-06	0.769	0.595	0.854
Emg1 (from UniProt O35130 1-244) (enzyme)	7.66e-05	0.766	0.939	0.695
Gm20425; Srprb (from UniProt P47758 1-269)	5.88e-06	0.766	0.92	0.703
Hp1bp3 (from UniProt Q3TEA8 2-554)	1.65e-05	0.766	0.779	0.766
Luzp1; mFLJ00226 (from UniProt Q8R4U7 2-1068)	7.26e-06	0.792	0.856	0.77
Lztfl1 (from UniProt Q9JHQ5 1-299)	6.33e-05	0.776	0.894	0.73
Numa1 (from UniProt E9Q7G0 1-2094)	1.43e-06	0.787	0.775	0.799
Pfkl (from UniProt P12382 2-780) (enzyme)	3.37e-06	0.768	0.501	0.894
Ppan (from UniProt Q91YU8 1-470)	4.7e-05	0.792	0.959	0.723
